Measured values from patent US20130323234A1 (Pfizer, published 2013).

Experiments:
[1] = target: IGF1R (UniProt P08069 31-932, limits assumed); assay: cell-based or functional assay
[2] = target: IGF1R on the human colon carcinoma cell line Colo205 (human, UniProt P08069 31-1367); assay: cell-based or functional assay

% IGF1R downregulated [1]: 36%
% IGF1R downregulated [2]: 48%
B1: 2.12.1.fx antibody (antibody, human IgG2, kappa, V domains shown)
VH: QVQLVESGGGLVKPGGSLRLSCAASGFTFSDYYMSWIRQAPGKGLEWVSYISSSGSTRDYADSVKGRFTISRDNAKNSLYLQMNSLRAEDTAVYYCVRDGVETTFYYYYYGMDVWGQGTTVTVSS
VL: DIQMTQSPSSLSASVGDRVTITCRASQDIRRDLGWYQQKPGKAPKRLIYAASRLQSGVPSRFSGSGSGTEFTLTISSLQPEDFATYYCLQHNNYPRTFGQGTKLVIKR
